Measurements: patent publication US20050113327

System: Actin of lily pollen tubes

Substance | actin filaments distribution in lily pollen tubes (TRITC-phalloidin staining) | lily pollen tube length after 1.5 h in vitro (FIG. 31; control 0.26 mm) | lily pollen tube length after 2 h in vitro (control without RNase about 300 µm)
Aspergillus niger B1 extracellular RNase (RNase B1) | in RNase-treated pollen tubes masses of actin were accumulated at the tip cell wall | Both RNase B1 and IAc-RNase B1 exhibited a clear inhibitory effect on pollen tube growth | reached only 160 µm in length
RNase B1 boiled for 30 minutes |  |  | Boiling or autoclaving the RNase yielded pollen tubes of 130 and 170 µm in length, respectively
autoclaved RNase B1 |  |  | Boiling or autoclaving the RNase yielded pollen tubes of 130 and 170 µm in length, respectively
iodoacetylated (IAc-) RNase B1 |  | IAc RNase B1 inhibits pollen tubes growth in a similar manner of non-modified RNase B1 | 
